{"source": "paper PMC4333402", "about": "(Nucleic Acids Research, 2014)", "molecular_target": "the molecule itself", "experiment": "crystal structure"}
{"protein": "Pyrococcus furiosus Cmr4 (natural protein, UniProt Q8U1S9 1-295, looked up) MKAYLVGLYTLTPTHPGSGTELGVVDQPIQRERHTGFPVIWGQSLKGVLRSYLKLVEKVDEEKINKIFGPPTEKAHEQAGLISVGDAKILFFPVRSLKGVYAYVTSPLVLNRFKRDLELAGVKNFQTEIPELTDTAIASEEITVDNKVILEEFAILIQKDDKGILESVVKAIEQAFGNEMAEKIKGRIAIIPDDVFRDLVELSTEIVARIRINAETGTVETGGLWYEEYIPSDTLFYSLILVTPRAKDNDMALIKEVLGKINGKYLQIGGNETVGKGFVKVTLKEVTNNGGTHAK", "values": [{"measurement": "binding result", "value": "binds"}]}
